Our source for the Kd and EC50 values is publication PMC8385704 (Signal Transduction and Targeted Therapy, 2021).

As a reminder, the Kd is a measure of binding affinity in units of concentration. As a reminder, the EC50 is the concentration giving half of the maximal effect.

Experiment [1] concerns the target T1, His-tagged recombinant human ACE2 protein (residues 19-740), dimeric (Homo sapiens, UniProt Q9BYF1).
T1 construct: also called hACE2-his; His-tagged human ACE2
The experiment can be described thus: BLI. The following applies: both partners purified.

Experiment [2] has as its target T1, His-tagged recombinant human ACE2 …. Description: ELISA; 3E8 and His-tagged recombinant human ACE2 protein; who was coated is not told. The following applies: both partners purified. A general note: In an ELISA, binding on a coated surface is turned into a signal by an enzyme label.

T1 sequence (Q9BYF1 19-740): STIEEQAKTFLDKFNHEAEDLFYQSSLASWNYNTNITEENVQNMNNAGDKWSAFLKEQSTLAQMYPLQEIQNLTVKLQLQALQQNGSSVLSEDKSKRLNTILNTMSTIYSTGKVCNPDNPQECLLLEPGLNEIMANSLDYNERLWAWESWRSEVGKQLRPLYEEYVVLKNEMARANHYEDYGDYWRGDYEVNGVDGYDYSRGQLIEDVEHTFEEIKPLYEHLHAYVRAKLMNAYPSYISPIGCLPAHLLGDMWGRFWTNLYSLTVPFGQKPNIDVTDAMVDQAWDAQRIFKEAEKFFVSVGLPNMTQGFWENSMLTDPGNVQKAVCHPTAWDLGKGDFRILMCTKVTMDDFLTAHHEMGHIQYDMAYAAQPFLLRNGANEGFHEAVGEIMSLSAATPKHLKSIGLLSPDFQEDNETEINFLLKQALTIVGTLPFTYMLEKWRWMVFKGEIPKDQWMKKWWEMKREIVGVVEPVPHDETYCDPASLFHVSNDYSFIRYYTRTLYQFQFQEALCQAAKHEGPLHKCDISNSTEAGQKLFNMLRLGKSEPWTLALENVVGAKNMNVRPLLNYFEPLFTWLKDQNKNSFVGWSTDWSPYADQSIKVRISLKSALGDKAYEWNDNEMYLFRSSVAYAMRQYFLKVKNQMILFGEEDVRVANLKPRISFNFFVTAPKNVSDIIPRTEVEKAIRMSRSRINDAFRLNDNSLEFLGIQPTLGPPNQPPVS

B1: monoclonal antibody 3E8 (antibody, V domains shown)
VH: EVQLEESGAELVRPGASVKISCKAFGYTFTNHHINWMKQRPGQGLDWIGYVNPYNDYTKYSQNFKGKATLSVDRSSSTAYMELSSLTSEDSAVYYCARWRDYDRDWYFDVWGAGTTVIVSS
VL: DIVMTQSPATLSVTPGDRVSLSCRASQSIRDYLYWYQQKSHESPRLLIKYASQSISGIPSRFSGSGSGSDFTLSINSVEPEDVGVYYCQNGHSFPYTFGGGTKLEIK
For B1, the Kd in experiment [1] turned out to be 30.5 nM. The EC50 in experiment [2] amounted to 15.3 nM.
